# Results reported in the supplement of paper PMC12764529.
# ± gives the half width of the 95% confidence interval.
# Legend:
# [1] = folding stability dG unfold from trypsin proteolysis; higher = more stable
# Summary of the method: (§1)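 Only designs with AlphaFold2 dimer inter-PAE above 15 were retained; each was a mini-protein under 80 residues with no cysteine, in a PA-tagged cDNA display construct. After digestion with trypsin and chymotrypsin and sequencing, K50 was inferred by Bayesian fitting of counts, and unfolding free energy was derived per protease or combined against a sequence-predicted unfolded-state K50 and a shared folded-state K50.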
# [2] = folding stability dG unfold (combined trypsin and chymotrypsin); higher = more stable
# Summary of the method: as §1
# [3] = folding stability dG unfold from chymotrypsin proteolysis; higher = more stable
# Summary of the method: as §1
Sequence,folding stability dG unfold [1] [kcal/mol],folding stability dG unfold [2] [kcal/mol],folding stability dG unfold [3] [kcal/mol]
SAGGSAGGSSLEEIKAAAEEAVAAGHPVLTVTSGSGKVVTVEVGESPIESAGPLDGVTVTLTGSAGGSAGGS [r20_44_JUSTAS],1.02 ± 0.056,0.723 ± 0.073,0.443 ± 0.038
SAGGSAGGSAGKPKVRLKLRLTVRVTTLNEDGSLEETEVELELEVELPEVRLPSLEELLKSAGGSAGGSAGG [r11_285_TrROS_Hall],3.22 ± 0.23,3.07 ± 0.41,2.92 ± 0.24
SAGGPNWYLKVKIEHRYPNPDNGKWQERRMEVIIPFKDPDQLPPNALKKLIDIMQPMGFRVDVELFPWSAGG [r13_926_TrROS],3.19 ± 0.23,3.76 ± 0.28,3.99 ± 0.12
SAGGSAGGSAGGPAVPVRTTLPDGRVVYYDPESGLTTIYVPETNETLVRDPATGTVTALSAGGSAGGSAGGS [r10_1057_JUSTAS],1.26 ± 0.027,0.938 ± 0.036,0.562 ± 0.04
SAGGSAGGEDPNFTPPVKVYYLDLEIEVKPNEIEKLKEEFPDLEAEYEKLGDTYKVKLRIPVPVSAGGSAGG [r6_685_TrMRF],1.51 ± 0.077,1.85 ± 0.17,2.03 ± 0.12
SAGGGMIERYDGKIVIKLKGPNGKEWTSTTEPLPDGTARITVTHPDKVLYLEHTPEGISVVSEVSNEKSAGG [r13_619_JUSTAS],-0.757 ± 0.33,-0.411 ± 0.22,-0.426 ± 0.45
SAGGSAGGSAGDNKPKPIKIRIESYYPNGKKQEHDFEVPDPEDLDELAKTNPGYKIDEIESAGGSAGGSAGG [r11_802_TrROS],-0.258 ± 0.057,0.478 ± 0.12,0.821 ± 0.056
SAGGGPMPIDVEVLEVTPDSVRIRYPETGAVFTFDPNKEHEFTLPDGSRITVTFKPDGSVSATVTVPGSAGG [r13_352_JUSTAS],4.35 ± 0.3,4.16 ± 0.14,4.13 ± 0.13
SAGGMSVRFRFTDEDDRIHVDEIIPGEGIMRVVVEGEDRPLVFTIDAPPDAAIQLIRDLFDGPFEVEASAGG [r13_141_TrMRF],-0.187 ± 0.26,0.596 ± 0.095,0.849 ± 0.11
SAGGSAGGSMNTTTTPTAVPAGATLTVTVTSSSKSYSVPPAGPVTVTTTSGSSGTTVTVDVVASAGGSAGGS [r12_919_JUSTAS],0.314 ± 0.022,0.53 ± 0.043,0.618 ± 0.051
SAGGSAGGSAGGDITIDTEQMPNGWHTVKVRLPNGKPIAPVPMPPGMTPEEAVKRALDRLSAGGSAGGSAGG [r7_444_TrROS],0.0871 ± 0.065,0.0336 ± 0.12,-0.407 ± 0.25
SAGGPFYLRIKIVDEDGKEITYMFPAPADEAEEEIEELLPGWPLKIDEVERFPGEPGYIMVTIKIPPNSAGG [r13_832_TrROS],1.63 ± 0.051,1.97 ± 0.12,2.07 ± 0.17
SAGGSAGGSAMTIEQIANELAKKLGVDIKVVVTYENGEKKEYRPDELKNIPPGPFTVEFYTDSAGGSAGGSA [r18_394_TrMRF],3.01 ± 0.096,3.51 ± 0.15,3.71 ± 0.1
SAGGMIPVSPEQYKAVEKLLKEGKDGSTVLVKTEDGRYIEIDPAGTARFFGDKPKEFPLEKIKKIIPSAGGS [r16_664_TrMRF],-0.209 ± 0.13,0.235 ± 0.12,0.469 ± 0.14
SAVLRIPNPITGEVRTLTLPTEVPAVSPDGVTSFRSPENLAAAIRALPSDVKVLSVVEHPDGTVTIVVDPSA [r9_997_TrMRF],0.102 ± 0.059,-0.0685 ± 0.064,-0.414 ± 0.15
SAGSSVSVSYDPNNPDKMTITITDPANGTQVSAVTAPVYKRPDGTIVVPLTITFPASGKVTTKTFTIPASAG [r5_610_JUSTAS],1.22 ± 0.019,1.22 ± 0.059,1.13 ± 0.09
SAGGDWRTITFNFEVDVPPGQTPEQLIEKAEEIVEELARMFPDVKIEVTDIEVDEDKVYIDVEIRVPDSAGG [r13_805_TrROS],2.6 ± 0.17,3.22 ± 0.16,3.45 ± 0.097
SAGMKKGDKFTVEFDLDPETRAEVEALLAAPGFAAEFDPSTGRLTLTLPSEIIDEVKKFPHIKKITKISAGG [r19_212_JUSTAS],1.05 ± 0.068,1.68 ± 0.083,1.79 ± 0.044
SAGGMTLEITITFPGPEMLEEAKKIIDELGIELVNPTPNSLTVKAKGPEEVAKIKEEAKKLGFTVTGSAGGS [r16_88_JUSTAS],2.92 ± 0.21,3.13 ± 0.14,3.19 ± 0.086
SSIEEQIREIFEPKGMEITDVKTEKKPDGTTVAKFTYTDPVKDEKGNPISTLTKEGTVVFKNGKIVEVEESA [r9_519_JUSTAS],2.27 ± 0.052,2.61 ± 0.049,2.779 ± 0.016
SAGGMKITIKEDEETGEKVIEIEDEETGERVRVVFNPDGEEIEIEVPSPEVLEALKELGIEKVEVEEVSAGG [r13_511_TrROS_Hall],0.732 ± 0.13,0.976 ± 0.19,1.07 ± 0.063

Sequence,folding stability dG unfold [1] [kcal/mol],folding stability dG unfold [2] [kcal/mol],folding stability dG unfold [3] [kcal/mol]
SAGGSAMITLEDIKALGPDNPIRTFPETGLVFVERPGELTLYKFDPKTNTVTKLKTFNSPEEKEKLSAGGSA [r15_6_JUSTAS],0.405 ± 0.035,0.863 ± 0.069,1.15 ± 0.083
SAGMPEPRVFEIPNEGSESDLRDAVRELAEELRPSGREVRLVVEVGGRPREYRLEEVDRFPPDFRVVLGSAG [r5_626_TrMRF],-0.362 ± 0.25,0.125 ± 0.12,0.324 ± 0.16
SKIKKIKIVKVKPGEEITTPDGRKIKPGDIVIVDEKTNKVYSAEEIKKLLKELEEKLKKLPKKPKPKKKKSA [r9_517_TrROS_Hall],0.814 ± 0.07,1.49 ± 0.17,1.78 ± 0.089
SAGGQRIEIKIKPGYFIMIKIRNPKNGETFRHFIPFKKPQEIEIPIPPNYEIEDIYIMPPKDMPDGMISAGG [r13_119_TrROS],2.11 ± 0.058,2.15 ± 0.18,2.28 ± 0.09
SAGVKELAEEIADEFQKPGWQVEVEVDPGDGTITVQMRMPDYQYEIEIKITPENGKPQVDIKWRPPNDSAGG [r19_2_TrROS],1.51 ± 0.16,1.56 ± 0.31,1.49 ± 0.11
SAGGSADNLMFMFEFEFSFEWSNPDGEPMTMEVPITVMIPIPIPVPKATPEAMKDPEKAKEAQEEASAGGSA [r15_728_TrROS],2.39 ± 0.22,3.39 ± 0.32,3.51 ± 0.19
QEIPIKELIKEALENGRPIVFPNGMEITDINPDGSITVKMPYYNPDDPGQPVQPVEMQIKIDEDGRIEVEFS [r1_284_TrROS],0.96 ± 0.12,1.45 ± 0.12,1.76 ± 0.054
SAGGSAGGSAGGSGMITVTIEREYTSYVTFPGGTLEPVLLKTTVTATLPPGVPVEEFLSSAGGSAGGSAGGS [r4_126_JUSTAS],1.65 ± 0.058,1.54 ± 0.11,1.37 ± 0.12
SAGGSAGGMKVTISSKGLPATITYYDPRNGTSTTVPINGDPEAAVAALKEATGLDVTDVTVTVESAGGSAGG [r6_763_JUSTAS],0.71 ± 0.04,0.617 ± 0.12,0.52 ± 0.11
SAGGMIKSEKLIKSPENETIKVETTIILDENGNPKSVKKKITVYKNGKPVKEMEISSIGNEIEIKKPSAGGS [r16_35_JUSTAS],-0.308 ± 0.65,1.14 ± 0.21,1.48 ± 0.15
SAGGSAGGSADNWFIQIKWRHPENGKKRTLHIPFKTPWDVEEIVEELAPPGMDEVEVKIYPFSAGGSAGGSA [r18_258_TrROS],0.707 ± 0.051,1.03 ± 0.061,1.25 ± 0.091
SAGGSAGGSAGGGYTLVTVTLRSPTPTEEVVEEKYPPSVPLEEVKAKYEPLGWEVSFDLLSAGGSAGGSAGG [r7_226_JUSTAS],0.936 ± 0.025,0.832 ± 0.061,0.422 ± 0.13
SAGGSAGGSAGYIWIPAKDFAKYIAEEHEEKGYQINIPVEVRPDNWVWIDIEIQPLKPGQSAGGSAGGSAGG [r11_214_TrROS],0.644 ± 0.048,1.04 ± 0.086,1.3 ± 0.096
SAGGSAMKLKLTFVADSPEQAEQLAEEYTRLNPELFPGEKDYPLEIEVYVLVAPPLVPPSPEELAGSAGGSA [r15_663_TrMRF],1.23 ± 0.051,1.69 ± 0.27,2.12 ± 0.27
SAGGSAKAEEIAKLLKELGFKEVKIEKDKETNKVTITVKKKDGSEIKITIDKKTKKIVKIEIKPKKSAGGSA [r15_648_TrROS_Hall],1.82 ± 0.067,1.99 ± 0.25,1.78 ± 0.27
SAGGKKKPPKVKIVSIEVEVFKNENGEKFVKVKIKFEKTNKIITITVPPGMTLEELAKKLNIEIEKESAGGS [r16_676_TrROS_Hall],1.67 ± 0.048,2.72 ± 0.088,3.04 ± 0.041
SAGGWLWVRTNGRIFVIEIKTEMKWEYDPGDPGQWRMDMEPEIEVRPIPPDDIKPLPPVDEDDPENKSAGGS [r16_395_TrROS],1.68 ± 0.13,1.87 ± 0.32,2.09 ± 0.27
SAGGSAPFKAELVSYDPETGVATFKLTLPDGSEVTVVATLDPDGVPHVKAYFPDGSVYDIEEILASSAGGSA [r15_832_TrMRF],2.28 ± 0.076,3.59 ± 0.1,3.893 ± 0.022
SAGGSAGGSALVVRLENGKEILIEGMSEEEIKELLDKLLPPEEKKNLKIVKVEVFEVEKPESAGGSAGGSAG [r3_340_TrROS_Hall],1.62 ± 0.1,1.29 ± 0.18,1.14 ± 0.096
SAGGSEFEIIEVKDGTVVIRNKKTNELITVKVKIEVKPPPPVVVKKPGEEVTVKEGKKVTVLKEGEKKSAGG [r13_322_TrROS_Hall],-0.188 ± 0.18,0.498 ± 0.18,0.916 ± 0.13
SMPKTIELEIDEDLPEEEVRARLLAQGFEEIEFHELEDPEVRRVTATRPEDDETVVVTVRPPPVPPDAPGSA [r9_1090_JUSTAS],2.38 ± 0.096,2.28 ± 0.18,2.29 ± 0.079
